Measurements taken from patent publication US20050176630A1.
No end group written: not given here.

Tests used:
[1] = target: µ opioid receptor on POMC neurons in mouse hypothalamic slices (mouse) (UniProt P42866); assay: cell-based or functional assay
[2] = target: MC3-R in mouse arcuate nucleus slices (mouse) (UniProt P33033); assay: cell-based or functional assay
[3] = target: T1, NPY Y2 receptor (expressed on a cell line); assay: receptor-binding study on a cell line expressing the NPY Y2 receptor; labelled ligand not named
T1 sequence (P49146 whole entry, species assumed, looked up): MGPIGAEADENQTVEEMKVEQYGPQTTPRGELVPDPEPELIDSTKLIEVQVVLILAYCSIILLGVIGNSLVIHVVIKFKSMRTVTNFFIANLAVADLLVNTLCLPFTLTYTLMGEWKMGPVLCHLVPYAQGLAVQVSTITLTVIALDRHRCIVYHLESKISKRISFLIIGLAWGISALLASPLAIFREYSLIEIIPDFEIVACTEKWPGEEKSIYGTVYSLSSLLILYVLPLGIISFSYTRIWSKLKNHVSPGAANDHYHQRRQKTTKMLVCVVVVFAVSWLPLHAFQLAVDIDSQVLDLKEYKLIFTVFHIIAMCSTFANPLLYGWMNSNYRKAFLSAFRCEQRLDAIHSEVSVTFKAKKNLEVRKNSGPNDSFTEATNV

Sequence of µ opioid receptor on POMC neurons in mouse hypothalamic slices (mouse) (P42866 whole entry): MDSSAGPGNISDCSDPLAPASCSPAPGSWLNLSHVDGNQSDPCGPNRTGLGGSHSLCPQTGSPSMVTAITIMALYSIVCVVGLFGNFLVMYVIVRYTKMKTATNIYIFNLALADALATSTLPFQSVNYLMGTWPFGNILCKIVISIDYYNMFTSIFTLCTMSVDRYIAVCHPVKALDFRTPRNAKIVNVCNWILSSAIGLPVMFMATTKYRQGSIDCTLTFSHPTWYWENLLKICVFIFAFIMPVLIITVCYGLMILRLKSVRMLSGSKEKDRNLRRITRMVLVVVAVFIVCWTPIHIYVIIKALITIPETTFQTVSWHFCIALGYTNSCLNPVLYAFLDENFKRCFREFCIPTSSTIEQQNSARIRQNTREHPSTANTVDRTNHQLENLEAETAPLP
Sequence of MC3-R in mouse arcuate nucleus slices (mouse) (P33033 whole entry): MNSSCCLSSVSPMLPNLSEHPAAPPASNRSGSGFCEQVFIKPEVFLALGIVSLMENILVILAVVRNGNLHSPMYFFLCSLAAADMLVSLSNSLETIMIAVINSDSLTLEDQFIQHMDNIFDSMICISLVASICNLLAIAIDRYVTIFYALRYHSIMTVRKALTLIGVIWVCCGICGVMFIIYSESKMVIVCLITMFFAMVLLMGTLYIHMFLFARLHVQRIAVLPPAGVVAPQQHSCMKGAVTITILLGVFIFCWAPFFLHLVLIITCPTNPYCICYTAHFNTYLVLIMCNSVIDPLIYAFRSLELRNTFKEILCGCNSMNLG

## met-enkephalin (from UniProt P01210 100-104) (peptide)
[1]
  hyperpolarization of the membrane potential of POMC cells (Met-Enk 30 µM): 10 to 20 mV

## D-Trp^8-γMSH (peptide)
[2]
  frequency of GABAergic IPSCs recorded from POMC neurons (D-Trp^8-γMSH 7 nM): 280%

## Ac-LRHYLNLLTRQRY (ends and bridges not checked) [N-acetyl (Leu^28, Leu^31) NPY (24-36)]
[3]
  IC50: 1.3 nM
